Reference: patent US20220298237A1 (KEIO UNIVERSITY, published 2022)
Several values for one entry are separate records, joined by “and”; a condition that tells them apart may be missing. Identical values can stand only once.

Tests used:
[1] = target: T1, oligopeptide ATYPSGHLDM (SEQ ID NO: 1) (human and mouse); assay: ELISA on coated peptide
T1 construct: Synthetic peptide; positions 148 to 157 of the human AQP3 polypeptide, identical in mouse; also called peptide used for immunization; oligopeptide 5
T1 peptide: ATYPSGHLDM
Protocol: (§1) To determine the important amino acid residues of an epitope in Loop C involved in binding to specific AQP3 antibody clones, peptides of varying lengths were produced. The sequences of these peptides are shown in column 2 of Table 4.
(§2) The various peptides and AQP3 antibody clones were subjected to ELISA binding analyses. […] The microtiter wells (Costar 2690) were coated with 50 μL of each peptide at 4° C. overnight. The wells were washed 3 times with PBS and blocked with 100 μL of 1% BSA/PBS at 37° C. for 1 hour. Each antibody was adjusted to 1 μg/mL in 1% SBA/PBS as above then serially diluted 1:5 in 1% BSA/PBS. The blocker was discarded and the wells were incubated with 50 μL of antibodies at 37° C. for 1.5 hours. The wells were washed 3 times with PBS and mouse antibodies were detected with 50 μL of goat anti-mouse IgG (H+L) HRP conjugate (ThermoFisher 31438) (1:5,000 in 1% BSA/PBS) and rabbit antibodies were detected with 50 μL of goat anti-rabbit IgG (H+L) HRP conjugate (ThermoFisher 31462) (1:5,000 in 1% BSA/PBS) at 37° C. for 1 hour. The wells were washed 3 times with PBS and developed with 50 μL of HRP substrate at RT for 5 min then stopped with 50 μL of 2N sulfuric acid and binding was measured with a plate reader.

[2] = target: T2, oligopeptide SGPNGTAGIFATYPS (SEQ ID NO: 94); assay: ELISA on coated peptide
T2 construct: Synthetic peptide, part of Loop C of AQP3
T2 peptide: SGPNGTAGIFATYPS
Protocol: as §1, §2

[3] = target: T3, oligopeptide TYPSGHLDM (SEQ ID NO: 96); assay: ELISA on coated peptide
T3 construct: Synthetic peptide, part of Loop C of AQP3
T3 peptide: TYPSGHLDM
Protocol: as §1, §2

[4] = target: T4, oligopeptide YPSGHLDM (SEQ ID NO: 97); assay: ELISA on coated peptide
T4 construct: Synthetic peptide, part of Loop C of AQP3; first diluted in DMSO
T4 peptide: YPSGHLDM
Protocol: as §1, §2

[5] = target: T5, oligopeptide PSGHLDM (SEQ ID NO: 98); assay: ELISA on coated peptide
T5 construct: Synthetic peptide, part of Loop C of AQP3
T5 peptide: PSGHLDM
Protocol: as §1, §2

[6] = target: T6, oligopeptide SGHLDM (SEQ ID NO: 99); assay: ELISA on coated peptide
T6 construct: Synthetic peptide, part of Loop C of AQP3
T6 peptide: SGHLDM
Protocol: as §1, §2

[7] = target: T7, oligopeptide GHLDM (SEQ ID NO: 100); assay: ELISA on coated peptide
T7 construct: Synthetic peptide, part of Loop C of AQP3
T7 peptide: GHLDM
Protocol: as §1, §2

[8] = target: T8, oligopeptide ATYPSGHLD (SEQ ID NO: 101); assay: ELISA on coated peptide
T8 construct: Synthetic peptide, part of Loop C of AQP3
T8 peptide: ATYPSGHLD
Protocol: as §1, §2

[9] = target: T9, oligopeptide ATYPSGHL (SEQ ID NO: 102); assay: ELISA on coated peptide
T9 construct: Synthetic peptide, part of Loop C of AQP3
T9 peptide: ATYPSGHL
Protocol: as §1, §2

[10] = target: T10, oligopeptide ATYPSGH (SEQ ID NO: 103); assay: ELISA on coated peptide
T10 construct: Synthetic peptide, part of Loop C of AQP3
T10 peptide: ATYPSGH
Protocol: as §1, §2

[11] = target: T11, oligopeptide ATYPSG (SEQ ID NO: 104); assay: ELISA on coated peptide
T11 construct: Synthetic peptide, part of Loop C of AQP3
T11 peptide: ATYPSG
Protocol: as §1, §2

[12] = target: T12, oligopeptide TAGIFATYPSGHLDM (SEQ ID NO: 105); assay: ELISA on coated peptide
T12 construct: Synthetic peptide, part of Loop C of AQP3
T12 peptide: TAGIFATYPSGHLDM
Protocol: as §1, §2

[13] = target: T13, oligopeptide AGIFATYPSGHLDM (SEQ ID NO: 106); assay: ELISA on coated peptide
T13 construct: Synthetic peptide, part of Loop C of AQP3
T13 peptide: AGIFATYPSGHLDM
Protocol: as §1, §2

[14] = target: T14, oligopeptide GIFATYPSGHLDM (SEQ ID NO: 107); assay: ELISA on coated peptide
T14 construct: Synthetic peptide, part of Loop C of AQP3
T14 peptide: GIFATYPSGHLDM
Protocol: as §1, §2

[15] = target: T15, oligopeptide IFATYPSGHLDM (SEQ ID NO: 108); assay: ELISA on coated peptide
T15 construct: Synthetic peptide, part of Loop C of AQP3
T15 peptide: IFATYPSGHLDM
Protocol: as §1, §2

[16] = target: T16, oligopeptide FATYPSGHLDM (SEQ ID NO: 109); assay: ELISA on coated peptide
T16 construct: Synthetic peptide, part of Loop C of AQP3
T16 peptide: FATYPSGHLDM
Protocol: as §1, §2

[17] = target: T17, oligopeptide SRGTHGGFL (SEQ ID NO: 2); assay: ELISA on peptide SEQ ID NO:2 (FIG. 16B)
T17 construct: Synthetic peptide of AQP3 Loop A; also called Loop A peptide; control peptide
T17 peptide: SRGTHGGFL

[18] = target: T18, human aquaporin 3 (AQP3) on cells (human, UniProt Q92482 1-292); assay: fluorescence binding assay on HaCaT cells, 10 µg/mL
T18 construct: whole, on cells; Water channel membrane protein; also called human AQP3; AQP3 on HaCaT cells
T18 sequence (looked up): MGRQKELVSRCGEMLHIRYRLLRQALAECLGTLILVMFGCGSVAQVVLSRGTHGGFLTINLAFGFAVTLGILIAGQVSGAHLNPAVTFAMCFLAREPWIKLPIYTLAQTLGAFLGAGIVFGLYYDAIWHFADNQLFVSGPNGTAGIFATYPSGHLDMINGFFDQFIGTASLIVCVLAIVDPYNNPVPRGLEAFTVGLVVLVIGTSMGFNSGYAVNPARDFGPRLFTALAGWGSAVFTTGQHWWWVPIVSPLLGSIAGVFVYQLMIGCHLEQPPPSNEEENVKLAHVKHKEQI
Protocol: HaCaT cells were reacted with each anti AQP3 antibody at concentrations of none, 1 ng/mL, 10 ng/mL, 100 ng/mL, 1 μg/mL, or 10 μg/mL at 4° C. for 1 hour. After washing the cells, a fluorescent-labeled secondary antibody was added and the reaction was allowed to occur additionally for 1 hour (at 4° C.). By measuring the fluorescence intensity, the binding property of each anti AQP3 antibody to cells was obtained.

[19] = target: T19, mouse aquaporin 3 (AQP3) on cells (mouse, UniProt Q8R2N1 1-292); assay: fluorescence binding assay on PAM212 cells, 10 µg/mL
T19 construct: whole, on cells; Water channel membrane protein; also called mouse AQP3; AQP3 on PAM212 cells
T19 sequence (looked up): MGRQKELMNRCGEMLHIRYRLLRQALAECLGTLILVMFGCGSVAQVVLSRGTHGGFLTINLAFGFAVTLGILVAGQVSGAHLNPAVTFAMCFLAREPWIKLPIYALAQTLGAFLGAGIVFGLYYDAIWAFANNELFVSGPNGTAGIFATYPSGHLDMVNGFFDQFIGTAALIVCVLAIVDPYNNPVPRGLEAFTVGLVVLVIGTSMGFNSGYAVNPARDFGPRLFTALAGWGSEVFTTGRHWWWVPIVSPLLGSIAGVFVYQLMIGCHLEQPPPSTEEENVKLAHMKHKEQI
Protocol: (§3) PAM212 cells were reacted with each anti AQP3 antibody at concentrations of none, 1 ng/mL, 10 ng/mL, 100 ng/mL, 1 μg/mL, or 10 μg/mL at 4° C. for 1 hour. After washing the cells, a fluorescent-labeled secondary antibody was added and the reaction was allowed to occur additionally for 1 hour (at 4° C.). By measuring the fluorescence intensity, the binding property of each anti AQP3 antibody to cells was obtained.

[20] = target: T1, oligopeptide ATYPSGHLDM (SEQ ID NO: 1); assay: ELISA on peptide SEQ ID NO:1, IgG, 50% binding response (FIG. 16A)
[21] = target: T19, mouse aquaporin 3 (AQP3) on cells; assay: fluorescence binding assay on PAM212 cells with AQP3 siRNA (10% of AQP3 expression) against control siRNA, 1 µg/mL (FIG. 19)
Protocol: The resulting siRNA AQP3 cell line had 10% of the AQP3 expression compared to the control siRNA cell line. The siRNA AQP3 and control siRNA PAM212 cells were reacted with SC—F8, BC—H9, BC—B10, and SC—B6 at the chosen concentration 1 μg/mL at 4° C. for 1 hour. After washing the cells, a fluorescent-labeled secondary antibody was added and the reaction was allowed to occur additionally for 1 hour (at 4° C.). By measuring the fluorescence intensity, the binding property of each anti AQP3 antibody to the two cell lines was obtained.
The result of the above experiment is shown in FIG. 19, wherein the vertical axis represents fluorescence intensity, and the mean fluorescence intensity of each sample is represented by bar height together with standard error.

[22] = target: T19, mouse aquaporin 3 (AQP3) on cells; assay: cell-based or functional assay
[23] = target: T19, mouse aquaporin 3 (AQP3) on cells; assay: fluorescence binding assay on PAM212 cells, 1 ng/mL to 10 µg/mL (FIG. 17A)
Protocol: as §3

B1: BC-B10 (IgG) (antibody, V domains shown)
VH: QSVEESGGRLVTPGAPLTLTCTVSRFSLSSYAMTWVRQAPGKGLEWIGIINNDVISSTWYASWVKGRFTISKTSTTMELKMTSLTTEDTATYFCARGGTSGYDIWGPGTLVTVSS
VL: AIKMTQTPSPVSAAVGGTVTINCQSSPSVYKNYLSWYQQKPGQPPKLLIYGASTLASGVPSRFKGSGSGTQFTLTISDVQCDDAATYYCAGGYIGSRDIFSFGGGTEVVVK
notes: also called anti AQP3 antibody BC-B10
binding signal (plate reader) [1]: 3.98 | binding signal (plate reader) [2]: 3.76 | binding signal (plate reader) [3]: 3.96 | binding signal (plate reader) [4]: 3.96 | binding signal (plate reader) [5]: 3.72 | binding signal (plate reader) [6]: 0.405 | binding signal (plate reader) [7]: 0.123 | binding signal (plate reader) [8]: 3.96 | binding signal (plate reader) [9]: 4 | binding signal (plate reader) [10]: 3.91 | binding signal (plate reader) [11]: 3.54 | binding signal (plate reader) [12]: 3.99 | binding signal (plate reader) [13]: 3.9 | binding signal (plate reader) [14]: 3.88 | binding signal (plate reader) [15]: 3.88 | binding signal (plate reader) [16]: 3.92 | binding result [17]: no binding | fold fluorescence intensity over no antibody [18]: > 2 fold | fold fluorescence intensity over no antibody [19]: ≥ 2 fold | EC50 [20]: 0.01 µg/mL and ~0.06 nM | fold decrease in fluorescence intensity on AQP3 siRNA cells against control siRNA cells [21]: ~2 fold

B2: SC-B6 (IgG) (antibody, V domains shown)
VH: QSVKESGGRLVTPGAPLTLTCTVSGFSLNNYAMTWVRQAPGKGLEWIGIINNDGISSTWYASWVKGRFIISKTSTTVDLKMTSLTTEDTATYFCARGGTSGYDIWGPGTLVTVSL
VL: AQGPTQTPSPVSAAVGGTVTINCQSSPSVYKNYLSWYQQKPGQPPKLLIYGASTLASGVPSRFKGSRSGTQFTLTISDVQCDDAATYYCAGGYIGSRDIFSFGGGTEVVVK
notes: also called anti AQP3 antibody SC-B6
decrease in H2O2 uptake in PAM212 cells against no antibody control [22]: ~2 fold | binding signal (plate reader) [1]: 3.98 | binding signal (plate reader) [2]: 2.02 | binding signal (plate reader) [3]: 4 | binding signal (plate reader) [4]: 3.96 | binding signal (plate reader) [5]: 2.23 | binding signal (plate reader) [6]: 0.135 | binding signal (plate reader) [7]: 0.097 | binding signal (plate reader) [8]: 3.92 | binding signal (plate reader) [9]: 4 | binding signal (plate reader) [10]: 3.44 | binding signal (plate reader) [11]: 0.915 | binding signal (plate reader) [12]: 3.96 | binding signal (plate reader) [13]: 3.83 | binding signal (plate reader) [14]: 3.79 | binding signal (plate reader) [15]: 3.69 | binding signal (plate reader) [16]: 3.87 | binding result [17]: no binding | fold fluorescence intensity over no antibody [18]: > 2 fold | fold fluorescence intensity over no antibody [19]: ≥ 2 fold | EC50 [20]: 0.01 µg/mL and ~0.06 nM

B3: BC-H9 (IgG) (antibody, V domains shown)
VH: QSLEESGGRLVTPGTPLTLTCTVSGFSLYTYAMGWVRQAPGKGLEWIGIINNDGISSTWYASWVKGRFTISKTSTTMDLKMTSLTTEDTATYFCARGGTSGYDIWGPGTLVTVSL
VL: AQGLTQTPSPVSAAVGGTVTINCQSGPSVYKNYLSWYQQKAGQPPKLLIYGASTLASGVPSRFKGSGSGTQFTLTISDVQCDDAATYYCAGGYRGSSDIFAFGGGTEVVVK
notes: also called anti AQP3 antibody BC-H9
binding signal (plate reader) [1]: 3.94 | binding signal (plate reader) [2]: 0.824 | binding signal (plate reader) [3]: 3.99 | binding signal (plate reader) [4]: 3.94 | binding signal (plate reader) [5]: 0.733 | binding signal (plate reader) [6]: 0.053 | binding signal (plate reader) [7]: 0.048 | binding signal (plate reader) [8]: 3.9 | binding signal (plate reader) [9]: 3.9 | binding signal (plate reader) [10]: 3.16 | binding signal (plate reader) [11]: 0.627 | binding signal (plate reader) [12]: 3.92 | binding signal (plate reader) [13]: 2.65 | binding signal (plate reader) [14]: 3.8 | binding signal (plate reader) [15]: 3.76 | binding signal (plate reader) [16]: 3.75 | binding result [17]: no binding | EC50 [20]: 0.01 µg/mL and ~0.06 nM | binding result [23]: binds
